This is an account of results in patent publication US20030087407A1.

Assay [1] addresses amyloid β-peptide 1-42 (Aβ1-42) (UniProt P05067). The assay can be described thus: cell-based or functional assay.
Assay [2] concerns the target amyloid β-peptide 1-40 (Aβ1-40) (UniProt P05067). The assay can be described thus: cell-based or functional assay.
The target is the same in assay [3]. Briefly: quenching of intrinsic Tyr10 fluorescence of Aβ1-40 in solution at approximately 4 µM iAβ.
Assay [4] shares this target. Briefly: quenching of intrinsic Tyr10 fluorescence of Aβ1-40 in solution by added iAβ, non-linear regression to a rectangular hyperbola.

Usually Kd stands for the constant that tells how readily two partners part at equilibrium. For the molecule RDLPFFPVPID [inhibitor of Aβ fibrillogenesis peptide (iAβ)], in assay [1], the % of amyloid remaining, ThT fluorometric assay, 10-fold molar excess of peptide, 2 days was 57.9 % of amyloid; the inhibition of amyloid formation, thioflavine T fluorometric assay, 24 h, 5-fold molar excess of iAβ (% of inhibition) worked out at 28.7; the inhibition of amyloid formation, thioflavine T fluorometric assay, 24 h, 20-fold molar excess of iAβ (% of inhibition) is 72.3; the inhibition of amyloid formation, thioflavine T fluorometric assay, 24 h, 40-fold molar excess of iAβ (% of inhibition) stood at 80.6. Besides, in assay [1], the reduction of preformed fibrils, thioflavine T fluorometric assay, 24 h, 40-fold molar excess of iAβ (% fibril reduction) was determined as 51. Besides, in assay [2], the % of amyloid remaining, ThT fluorometric assay, 10-fold molar excess of peptide, 2 days was 25.5 % of amyloid; the amyloid formation, thioflavine T fluorometric assay, 24 h, 5-fold molar excess of iAβ (% of amyloid detectable in the absence of inhibitor) was found to be 33.9%; the amyloid formation, thioflavine T fluorometric assay, 24 h, 20-fold molar excess of iAβ (% of amyloid detectable in the absence of inhibitor) is 13.7%. In addition, the maximum quenching of the total fluorescence in assay [3] turned out to be 12.6%. The molecule also had a Kd in assay [4] of 75.9 nM.
